Reference: US12570698B2, “Stabilized peptides for covalent binding to target protein” (Dana-Farber Cancer Institute, Inc., priority 2015, dated 2026)
Bridge positions count the residues as written; N and C are the ends. Square brackets hold non-standard residues; d marks the D form. Ends that are not written are not given here. S5 = C=CCCC[C@](C)(N)C(=O)O

What was measured:
GST-MCL-1ΔNΔC = target: T1, GST-MCL-1ΔNΔC (Homo sapiens, UniProt Q07820); test: Streptavidin pull-down from anti-apoptotic protein mixture; type: binding; settings: 1:1:1:1 mixture, 1 μM each, biotinylated SAHBs
T1 construct: MCL-1ΔNΔC (aa 170-327) and BCL-XLΔC (aa 1-212) constructs were cloned into pGEX-4T-1; made in house; host or cells: Escherichia coli BL21(DE3)
Description: We next explored how conversion of NOXA and BIM SAHBs to BFL-1 C55-reactive agents influenced the balance between noncovalent and covalent SAHB interactions in the context of an anti-apoptotic protein mixture. First, we generated recombinant MCL-1ΔNΔC, BCL-XLΔC and BFL-1ΔC proteins with differential N-terminal tags (GST, tagless, and His, respectively) so that each could be readily identified upon gel electrophoresis and silver stain (FIG. 13A-B).
Streptavidin Pull-down: Recombinant His-BFL-1ΔC, BCL-XLΔC (tagless) and GST-MCL-1ΔNΔC (1 μM each) were combined and reduced with 3 mM DTT in PBS for 30 min at RT, and then incubated with 1 μM biotinylated SAHBA, SAHBA-3 or vehicle for 4 h at RT. The mixtures were then combined with PBS-washed high-capacity SA agarose (Thermo Fisher Pierce) and incubated with rotation for 2 h at RT. The beads were centrifuged at 3000 rpm, washed twice with NP-40 lysis buffer (1% NP40, 50 mM Tris pH 8.0, 100 mM NaCl, 2.5 mM MgCl2), once with PBS, and then bound protein eluted by boiling in 10% SDS containing 10 mg/mL biotin. Inputs (10%) and eluates were electrophoresed on a 12% Bis-Tris gel and then subjected to silver stain and imaging.

Bfl-1 = target: T2, Bfl-1 (Homo sapiens, UniProt Q16548); test: Competitive binding assay after pre-forming the Bfl-1:NOXA disulfide bond; settings: Bfl-1:NOXA disulfide bond pre-formed
T2 sequence (Q16548 1-175): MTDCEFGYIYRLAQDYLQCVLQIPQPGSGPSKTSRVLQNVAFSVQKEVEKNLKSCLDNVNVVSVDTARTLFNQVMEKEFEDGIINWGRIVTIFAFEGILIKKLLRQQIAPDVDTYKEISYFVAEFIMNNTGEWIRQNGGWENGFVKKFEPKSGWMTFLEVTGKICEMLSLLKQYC
Description: The functional impact of the Bfl-1:NOXA disulfide bond formation was evaluated using competitive binding assays and liposomal release assays.

T1 sequence (Q07820 170-327, stated change not applied): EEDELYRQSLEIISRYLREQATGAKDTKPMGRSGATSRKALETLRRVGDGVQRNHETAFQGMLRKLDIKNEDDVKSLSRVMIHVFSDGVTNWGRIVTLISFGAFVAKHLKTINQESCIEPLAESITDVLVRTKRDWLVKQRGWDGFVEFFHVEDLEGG

In the case of “NOXA SAHBA: stapled NOXA BH3 (aa 19-43) peptide, i, i+4 all-hydrocarbon staple substituting R31 and K35; SEQ ID NO:124 (AELEVECATQLR[S5]FGD[S5]LNFRQKLL; staple 13-17; not fully specified)”, the “MCL-1ΔNΔC capture in SA pull-down” value (GST-MCL-1ΔNΔC) is reported as “prominent non-covalent capture of MCL-1ΔNΔC” and the “availability of the Bfl-1 binding pocket to another FITC BH3 domain” value (Bfl-1) is reported as “significantly decreased the availability of the Bfl-1 binding pocket”.
